Assay results from publication doi:10.1101/702415 (bioRxiv, 2019).

Biological target: T1, Ups1 (S. cerevisiae, UniProt Q05776 1-175)
T1 sequence: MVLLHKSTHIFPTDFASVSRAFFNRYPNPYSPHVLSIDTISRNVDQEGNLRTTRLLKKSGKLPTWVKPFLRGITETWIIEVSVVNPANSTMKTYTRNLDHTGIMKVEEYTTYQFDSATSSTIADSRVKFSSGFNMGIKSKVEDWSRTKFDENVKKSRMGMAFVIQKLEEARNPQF
Assay: crystal structure

B1: Mdm35 (natural protein)
chain: MGNIMSASFAPECTDLKTKYDSCFNEWYSEKFLKGKSVENECSKQWYAYTTCVNAALVKQGIKPALDEAREEAPFENGGKLKEVDK
binding result: binds
